How the values were obtained:
human fibrinogen (human) [1] = target: human fibrinogen (human) (UniProt P02671); assay: FITC-labelled bacteria on immobilized fibrinogen; less than 2% of the fbsA mutants bound (FIG. 23)
human fibrinogen (human) [2] = target: human fibrinogen (human) (UniProt P02671); assay: 125I-fibrinogen bound to whole bacteria; fbsA deletion mutant bound less than 2%
human fibrinogen (human) [3] = target: human fibrinogen (human) (UniProt P02671); assay: FITC-labelled bacteria on fibrinogen-coated Terasaki plates; less than 2% of the fbsA mutant bound
human fibrinogen (human) [4] = target: human fibrinogen (human) (UniProt P02671); assay: radiolabelled soluble human fibrinogen bound to whole GBS 6313 cells; the filing later attributes the binding to FbsA
human fibrinogen [5] = target: T1, human fibrinogen (human, UniProt P02671 20-629; P02675 31-491; P02679 27-437); assay: refers to the SPOT membrane analysis of FIG. 11
T1 construct: also called 125I-labelled fibrinogen; immobilized fibrinogen
T1 sequence 1: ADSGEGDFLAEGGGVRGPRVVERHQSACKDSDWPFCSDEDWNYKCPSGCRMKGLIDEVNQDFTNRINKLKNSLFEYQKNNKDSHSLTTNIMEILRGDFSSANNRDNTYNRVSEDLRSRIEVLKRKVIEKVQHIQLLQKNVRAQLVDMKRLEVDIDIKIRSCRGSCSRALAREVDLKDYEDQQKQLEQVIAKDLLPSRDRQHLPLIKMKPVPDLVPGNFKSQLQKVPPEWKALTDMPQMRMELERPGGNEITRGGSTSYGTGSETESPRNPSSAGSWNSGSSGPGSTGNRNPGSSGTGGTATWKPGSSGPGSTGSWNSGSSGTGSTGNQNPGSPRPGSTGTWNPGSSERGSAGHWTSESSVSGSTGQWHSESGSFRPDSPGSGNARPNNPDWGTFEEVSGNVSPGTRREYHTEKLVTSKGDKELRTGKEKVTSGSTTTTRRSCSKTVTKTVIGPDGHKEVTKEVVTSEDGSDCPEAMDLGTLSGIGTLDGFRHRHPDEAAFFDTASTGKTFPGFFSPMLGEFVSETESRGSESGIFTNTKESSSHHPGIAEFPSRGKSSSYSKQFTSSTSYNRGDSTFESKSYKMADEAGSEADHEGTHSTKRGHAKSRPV
T1 sequence 2: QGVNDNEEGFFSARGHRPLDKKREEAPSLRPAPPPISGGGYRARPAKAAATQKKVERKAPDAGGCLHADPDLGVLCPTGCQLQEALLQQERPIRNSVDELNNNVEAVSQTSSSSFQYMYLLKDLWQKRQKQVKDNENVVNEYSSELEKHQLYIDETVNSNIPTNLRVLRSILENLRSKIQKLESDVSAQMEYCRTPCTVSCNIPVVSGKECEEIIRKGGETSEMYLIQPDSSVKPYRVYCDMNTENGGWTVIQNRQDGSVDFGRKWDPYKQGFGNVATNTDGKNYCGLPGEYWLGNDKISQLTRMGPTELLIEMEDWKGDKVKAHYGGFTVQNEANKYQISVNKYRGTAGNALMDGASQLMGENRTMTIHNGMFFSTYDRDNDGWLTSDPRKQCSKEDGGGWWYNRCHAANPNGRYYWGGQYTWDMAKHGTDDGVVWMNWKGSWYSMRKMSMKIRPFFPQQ
T1 sequence 3: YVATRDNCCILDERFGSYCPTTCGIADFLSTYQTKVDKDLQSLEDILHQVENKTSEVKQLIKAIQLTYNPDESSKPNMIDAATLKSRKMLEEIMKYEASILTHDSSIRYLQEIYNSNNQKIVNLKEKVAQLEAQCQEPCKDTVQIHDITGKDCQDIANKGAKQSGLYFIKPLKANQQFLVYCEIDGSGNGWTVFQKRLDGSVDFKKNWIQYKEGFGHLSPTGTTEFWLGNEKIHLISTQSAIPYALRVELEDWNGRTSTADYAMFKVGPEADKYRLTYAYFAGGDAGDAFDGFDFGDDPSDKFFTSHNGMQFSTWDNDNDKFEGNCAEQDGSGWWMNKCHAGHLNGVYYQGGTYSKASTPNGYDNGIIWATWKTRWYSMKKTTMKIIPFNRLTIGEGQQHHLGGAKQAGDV

human fibrinogen [6] = target: T1, human fibrinogen; assay: dot blot / SPOT membrane overlaid with human fibrinogen (FIG. 11)

Molecule	percent of total bacteria bound to immobilized fibrinogen (human fibrinogen (human) [1])	percent binding of 125I-labelled soluble fibrinogen (human fibrinogen (human) [2])	percent of total bacteria bound to immobilized fibrinogen (human fibrinogen (human) [3])	binding result (human fibrinogen [5])	also measured
FbsA protein of GBS strain 0176 H4A (native) (receptor)	4%				
FbsA protein of GBS strain 706 S2 (native) (receptor)	14%	8%	15%		
FbsA protein of GBS strain 6313 (native) (receptor)	45%	50%	45%		percent of total radiolabelled fibrinogen bound (human fibrinogen (human) [4]): 50%
FbsA protein of GBS strain O90R (native) (receptor)	18%	12%	24%		
FbsA protein of GBS strain SS1169 (native) (receptor)	7%				
GAVLERRQRDAENRSQ (also called peptide <2>; N2A) [alanine mutant peptide GAVLERRQRDAENRSQ]				no binding	
GNALERRQRDAENRSQ (also called peptide <3>; V3A) [alanine mutant peptide GNALERRQRDAENRSQ]				no binding	
GNVLERAQRDAENRSQ (also called peptide <5>; R7A) [alanine mutant peptide GNVLERAQRDAENRSQ]				no binding	
GLSQNRDVRENQRARE (Same amino acids as the repeat unit in a different order; spotted on cellulose; also called randomised peptide) [scrambled peptide GLSQNRDVRENQRARE]					binding result (human fibrinogen [6]): no binding (tested: 2 µg/ml of human fibrinogen)

— US20060115479A1 (INTERCELL, published 2006)
